Source: the supplement of paper PMC12042874
± gives the uncertainty stated by the source.

Assay: amyloid nucleation score (Sup35N fusion, yeast selection) (log enrichment); library NNK3; higher = more nucleation; inactive = no reads after selection
In short: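 Random libraries were run with three technical output replicates. In each, psi-negative yeast expressing Sup35N fused to peptides of 20 random codons were induced 24 hours with 100 μM copper sulfate and grown 7 days at 30°C on medium lacking adenine and uracil, and input and output plasmid inserts were Illumina-sequenced. The nucleation score is the DiMSum log enrichment of output over input reads, centred on the mode score of non-aggregating sequences, and sequences under 100 input reads were excluded.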

Question: Which amyloid nucleation score does the source give for FRYVIVYKRSSFGYRKCIEC here?
Answer: inactive

Question: Which amyloid nucleation score does the source give for FSCIPCG here?
Answer: inactive

Question: With FSCPRVSIFGLCSNCMYQWW as the substance, how does the amyloid nucleation score read?
Answer: 2.43 ± 0.057

Question: With FSDNSSRSGSNSEWYGS as the substance, how does the amyloid nucleation score read?
Answer: inactive

Question: For FSDVGLWFGAYRKVVVVKLF, which amyloid nucleation score is on record?
Answer: inactive

Question: With FSFRTMYVFDPLYNKYRIFM as the substance, how does the amyloid nucleation score read?
Answer: 0.125 ± 0.6

Question: Which amyloid nucleation score does the source give for FSHFMSSTYYCC here?
Answer: 1.73 ± 0.12

Question: With FSHVV as the substance, how does the amyloid nucleation score read?
Answer: inactive

Question: With FSIDTNGSCYRIDARHVK as the substance, how does the amyloid nucleation score read?
Answer: inactive

Question: For FSIVMTRFSFGSRVGSFYNF, which amyloid nucleation score is on record?
Answer: 0.151 ± 0.44

Question: With FSMCCTWYFKFHL as the substance, how does the amyloid nucleation score read?
Answer: 0.596 ± 0.14

Question: Which amyloid nucleation score does the source give for FSNQSNFNMELLLKDRDSTP here?
Answer: inactive

Question: For FSPMYFNWMIGVVCSGIVGN, which amyloid nucleation score is on record?
Answer: -0.349 ± 0.8

Question: With FSPYYLPLYVLVVRIKIQLG as the substance, how does the amyloid nucleation score read?
Answer: inactive

Question: For FSSFG, which amyloid nucleation score is on record?
Answer: inactive

Question: Which amyloid nucleation score does the source give for FSSRVRTMPLVGVM here?
Answer: inactive

Question: For FSTWEELLTSHLKCFTAGWG, which amyloid nucleation score is on record?
Answer: -0.458 ± 1.4

Question: With FSVFN as the substance, how does the amyloid nucleation score read?
Answer: inactive

Question: With FSVVLYKRWWRTRMATGLLK as the substance, how does the amyloid nucleation score read?
Answer: inactive

Question: With FSYSFVTRDMATYGRTLVKS as the substance, how does the amyloid nucleation score read?
Answer: inactive

Question: Which amyloid nucleation score does the source give for FTFLMDRY here?
Answer: -0.083 ± 0.34

Question: Which amyloid nucleation score does the source give for FTGFN here?
Answer: inactive

Question: Which amyloid nucleation score does the source give for FTLKRLPGYSHRSLEWLPPY here?
Answer: inactive

Question: For FTNLYMPTRERHCRGSHMW, which amyloid nucleation score is on record?
Answer: inactive

Question: Which amyloid nucleation score does the source give for FTNYRSRGNMVRGGPCRPSY here?
Answer: inactive

Question: For FTQYFLTRCDYYVEYYMLDR, which amyloid nucleation score is on record?
Answer: inactive

Question: Which amyloid nucleation score does the source give for FTSFSYYMVCFCADIIKQG here?
Answer: 1.97 ± 0.065

Question: Which amyloid nucleation score does the source give for FTSYS here?
Answer: inactive

Question: With FTVCFVLPIAITPMMWDIWY as the substance, how does the amyloid nucleation score read?
Answer: inactive

Question: For FTVTCPGREANIYIFFRGGR, which amyloid nucleation score is on record?
Answer: 1.37 ± 0.13

Question: With FTYWLFSLDR as the substance, how does the amyloid nucleation score read?
Answer: inactive

Question: For FVCYNTFSSSACSLCNHLSH, which amyloid nucleation score is on record?
Answer: 2.4 ± 0.053

Question: With FVDLSGRSCRVPTEVWGFHS as the substance, how does the amyloid nucleation score read?
Answer: inactive

Question: With FVEAANNSFCYESSNIT as the substance, how does the amyloid nucleation score read?
Answer: inactive

Question: For FVFGN, which amyloid nucleation score is on record?
Answer: inactive

Question: With FVFMTDGGVLNVLAWCISEA as the substance, how does the amyloid nucleation score read?
Answer: inactive

Question: Which amyloid nucleation score does the source give for FVGIIGWMIYVEGVY here?
Answer: inactive

Question: With FVGSLDFNGVSEGFVASHCI as the substance, how does the amyloid nucleation score read?
Answer: inactive

Question: With FVHSLRVVIW as the substance, how does the amyloid nucleation score read?
Answer: inactive

Question: Which amyloid nucleation score does the source give for FVIELCMWVRLEDVKLCFID here?
Answer: inactive

Question: Which amyloid nucleation score does the source give for FVILFVVFNYINALCDCNID here?
Answer: 0.377 ± 0.27

Question: Which amyloid nucleation score does the source give for FVIVGSGSQSPEYIWNVKYE here?
Answer: -0.049 ± 0.32

Question: Which amyloid nucleation score does the source give for FVIVSL here?
Answer: 1.6 ± 0.069

Question: Which amyloid nucleation score does the source give for FVKCSRMF here?
Answer: inactive

Question: For FVLGGFLNKN, which amyloid nucleation score is on record?
Answer: -0.11 ± 1.4

Question: With FVLIPSHRAW as the substance, how does the amyloid nucleation score read?
Answer: inactive

Question: With FVMRYRVVYSDRCFELGWHA as the substance, how does the amyloid nucleation score read?
Answer: -0.567 ± 0.76

Question: With FVNISHMY as the substance, how does the amyloid nucleation score read?
Answer: inactive

Question: With FVPCVWLGSGNCLCTDTMLW as the substance, how does the amyloid nucleation score read?
Answer: 1.63 ± 0.11

Question: With FVPRPISNSAGIP as the substance, how does the amyloid nucleation score read?
Answer: inactive

Question: Which amyloid nucleation score does the source give for FVSILLYYMPVNCLNRKTIN here?
Answer: inactive

Question: Which amyloid nucleation score does the source give for FVTAAN here?
Answer: inactive

Question: With FVTQFVEN as the substance, how does the amyloid nucleation score read?
Answer: inactive

Question: For FVYTHIWGVGLGKML, which amyloid nucleation score is on record?
Answer: 0.632 ± 0.14

Question: With FWFSTELVDDGAGQT as the substance, how does the amyloid nucleation score read?
Answer: inactive

Question: With FWHILLEVRLAVWSQMRDMG as the substance, how does the amyloid nucleation score read?
Answer: inactive

Question: With FWIVSVTYFNCLVDWGEGCM as the substance, how does the amyloid nucleation score read?
Answer: 2.05 ± 0.091

Question: With FWKFRGQTWYCFAGTDGISH as the substance, how does the amyloid nucleation score read?
Answer: -0.002 ± 0.75

Question: Which amyloid nucleation score does the source give for FWNVLWATRLYFFSFYDITS here?
Answer: inactive

Question: Which amyloid nucleation score does the source give for FWSHLTLTSSSFKFGTVSR here?
Answer: inactive

Question: Which amyloid nucleation score does the source give for FWTVHLVT here?
Answer: inactive

Question: For FWVNVCVFMGRVW, which amyloid nucleation score is on record?
Answer: inactive

Question: For FWWLEI, which amyloid nucleation score is on record?
Answer: inactive

Question: With FYCGFAMGFILCCQNYTFVT as the substance, how does the amyloid nucleation score read?
Answer: 2.63 ± 0.076

Question: For FYCGIWAYVEDCC, which amyloid nucleation score is on record?
Answer: 2.53 ± 0.057

Question: With FYCIVFQYGSLDLARH as the substance, how does the amyloid nucleation score read?
Answer: 2.69 ± 0.064

Question: Which amyloid nucleation score does the source give for FYCRSGVGKCYGWVTKVMRE here?
Answer: inactive

Question: With FYFGTG as the substance, how does the amyloid nucleation score read?
Answer: inactive

Question: With FYGFGGISIRSGVVGIVDMK as the substance, how does the amyloid nucleation score read?
Answer: inactive

Question: With FYISREALLSIASRTLRARQ as the substance, how does the amyloid nucleation score read?
Answer: inactive

Question: Which amyloid nucleation score does the source give for FYMDWTGHLQKFNP here?
Answer: inactive

Question: For FYNDWRVFRVGCSLGRDQSN, which amyloid nucleation score is on record?
Answer: inactive

Question: Which amyloid nucleation score does the source give for FYNFSTCVTRGWYVFMRC here?
Answer: inactive

Question: Which amyloid nucleation score does the source give for FYPRMYTISQMLDAGQDDAA here?
Answer: inactive

Question: For FYQNLFRILMHNVHAVCPCY, which amyloid nucleation score is on record?
Answer: inactive

Question: Which amyloid nucleation score does the source give for FYWGACSIHLFKL here?
Answer: inactive

Question: With FYYSVHFLF as the substance, how does the amyloid nucleation score read?
Answer: inactive

Question: Which amyloid nucleation score does the source give for FYYTKDPRIGKNNYLCV here?
Answer: inactive

Question: Which amyloid nucleation score does the source give for FYYYLCYDIVAISVLMNLPY here?
Answer: inactive

Question: For GADMKTRRSARGLMWTMGSS, which amyloid nucleation score is on record?
Answer: inactive

Question: For GAHANM, which amyloid nucleation score is on record?
Answer: inactive

Question: With GAKIPELSLLMVTPINARSF as the substance, how does the amyloid nucleation score read?
Answer: inactive

Question: Which amyloid nucleation score does the source give for GALMCPPRLVS here?
Answer: inactive

Question: With GASCLCWNYRDRLRTEVRYY as the substance, how does the amyloid nucleation score read?
Answer: inactive

Question: With GATFVRILSRLIRLSFI as the substance, how does the amyloid nucleation score read?
Answer: inactive

Question: For GCINKDDYKSDCWSFYKTE, which amyloid nucleation score is on record?
Answer: inactive

Question: For GCIYK, which amyloid nucleation score is on record?
Answer: inactive

Question: For GCLECL, which amyloid nucleation score is on record?
Answer: inactive

Question: For GCLYVW, which amyloid nucleation score is on record?
Answer: inactive

Question: For GCNDSSARLS, which amyloid nucleation score is on record?
Answer: inactive

Question: For GCNNVH, which amyloid nucleation score is on record?
Answer: inactive

Question: Which amyloid nucleation score does the source give for GCSRHYKFS here?
Answer: inactive

Question: With GDERGLLMYVPG as the substance, how does the amyloid nucleation score read?
Answer: inactive

Question: For GDITSEYV, which amyloid nucleation score is on record?
Answer: inactive

Question: For GDMQMW, which amyloid nucleation score is on record?
Answer: inactive

Question: For GDNSLTYMSAM, which amyloid nucleation score is on record?
Answer: inactive

Question: For GEKCGRSRI, which amyloid nucleation score is on record?
Answer: inactive

Question: With GFAISQAYALSTPFVCISAI as the substance, how does the amyloid nucleation score read?
Answer: inactive

Question: With GFEDSSIT as the substance, how does the amyloid nucleation score read?
Answer: inactive

Question: For GFFLLNSYSNCMFCKLHTGT, which amyloid nucleation score is on record?
Answer: 1.97 ± 0.082

Question: With GFGFP as the substance, how does the amyloid nucleation score read?
Answer: inactive

Question: With GFGYCVWQESGNLRGCRWLW as the substance, how does the amyloid nucleation score read?
Answer: 0.5 ± 0.39

Question: With GFIMEYDEY as the substance, how does the amyloid nucleation score read?
Answer: inactive

Question: For GFLMGSE, which amyloid nucleation score is on record?
Answer: inactive

Question: With GFMLWTHKKLARPEATAV as the substance, how does the amyloid nucleation score read?
Answer: inactive

Question: Which amyloid nucleation score does the source give for GFVMMFNR here?
Answer: inactive

Question: With GFYWYTVFAVSLDDCLSKSS as the substance, how does the amyloid nucleation score read?
Answer: inactive

Question: For GGCCAYCSLDLVWMFDDRSV, which amyloid nucleation score is on record?
Answer: 2.16 ± 0.081

Question: Which amyloid nucleation score does the source give for GGFCKWRKCGVYKMTGHCPE here?
Answer: inactive

Question: With GGKLSRNI as the substance, how does the amyloid nucleation score read?
Answer: inactive

Question: Which amyloid nucleation score does the source give for GGKVSERRYVDLCRLPSVAP here?
Answer: inactive

Question: For GGLCLLAVLWKFLMSALVIR, which amyloid nucleation score is on record?
Answer: inactive

Question: For GGLDFSSLSLMWYTQSSHKV, which amyloid nucleation score is on record?
Answer: inactive

Question: With GGLEVMSLITT as the substance, how does the amyloid nucleation score read?
Answer: inactive

Question: Which amyloid nucleation score does the source give for GGLTSYDQ here?
Answer: inactive

Question: For GGNGKAWHVGTVIMCRKLRV, which amyloid nucleation score is on record?
Answer: 2.5 ± 0.078

Question: With GGPSYSLSLWLSKVSCLQGG as the substance, how does the amyloid nucleation score read?
Answer: 0.63 ± 0.34

Question: Which amyloid nucleation score does the source give for GGRTM here?
Answer: inactive

Question: With GGSCLSNPVGKYGILWWMLS as the substance, how does the amyloid nucleation score read?
Answer: inactive

Question: Which amyloid nucleation score does the source give for GGTIFNGNWVSTLSHPQRRA here?
Answer: 0.47 ± 0.25

Question: Which amyloid nucleation score does the source give for GGVTYRQDLTRYLSG here?
Answer: inactive

Question: Which amyloid nucleation score does the source give for GHGLGAAYCRIVLKRETLTN here?
Answer: inactive

Question: With GHIYCYSVKE as the substance, how does the amyloid nucleation score read?
Answer: inactive
